Reference: patent publication US20190367592A1 (AC IMMUNE, published 2019)
Each block holds one binder with its values, some of them ahead of it. Where no end group is shown, it is not given here.

Legend:
[1] = biological target: T1, full-length human Tau (flTau) (human, UniProt P10636-8 1-441); experiment: SPR, hybridoma Ab on anti-IgG chip, flTau analyte
T1 construct: range 1-441; bought (SignalChem); also called human Tau-441
How it was run: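 Unpurified antibodies from serum-free hybridoma supernatants were captured on an anti-IgG SPR chip (Biacore T-100), and flTau was flowed as analyte. KD was obtained from kinetic analysis with a 1:1 Langmuir fit.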

[2] = biological target: T2, 0N4R Tau (human, UniProt P10636-6 1-383); experiment: indirect or sandwich ELISA on recombinant human Tau isoforms
T2 construct: also called 0N-Tau

[3] = biological target: T3, recombinant human Tau monomer, 2N4R isoform (amino acids 2-441) (human, UniProt P10636-8 2-441); experiment: SPR, mIgG2a captured, Tau monomer analyte, 1:1 fit
T3 construct: range 2-441; N-terminal His-tag removed with TEV protease; also called monomeric Tau
How it was run: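 Antibodies in mIgG2a format captured on anti-mouse IgG surface at 1 μg/ml (30 or 45 s) or 0.1 μg/ml (70 or 150 s), 10 μl/min, in HBSP (10 mM HEPES pH7.4, 150 mM NaCl, 0.05% Tween 20). Tau monomer flowed as analyte; association 180-480 s, dissociation 300-600 s, 1:1 fit.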

[4] = biological target: T4, MAPT(10-24) (human, also: biotinylated, site not given here); experiment: ELISA on Tau 15-mer peptides, O.D.; conditions of this panel not given
T4 construct: also called Tau fragment 10-24
T4 peptide: VMEDHAGTYGLGDRK

[5] = biological target: T5, Tau fragment 1-15 (human, UniProt P10636-8 1-15); experiment: as above
T5 construct: range 1-15
T5 peptide (looked up): MAEPRQEFEVMEDHA

[6] = biological target: T6, Tau fragment 19-33 (human, UniProt P10636-8 19-33, not fully specified); experiment: as above
T6 construct: range 19-33
T6 peptide (looked up): GLGDRKDQGGYTMHQ

[7] = biological target: T7, Tau fragment 28-42 (human, UniProt P10636-8 28-42, not fully specified); experiment: as above
T7 construct: range 28-42
T7 peptide (looked up): GYTMHQDQEGDTDAG

[8] = biological target: T8, Tau fragment 37-51 (human, UniProt P10636-8 37-51); experiment: as above
T8 construct: range 37-51
T8 peptide (looked up): GDTDAGLKESPLQTP

[9] = biological target: T9, AVI-tag biotinylated oligomeric flTau (human, UniProt P10636-8 1-441, site-specific biotin on AVI-tag); experiment: capture ELISA, antibody on anti-IgG plate, biotinylated oligoTau titrated, O.D.
T9 construct: also called oligoTau; oligomeric Tau
Protocol: (§1) For the oligoTau and monoTau capture ELISAs, antibodies contained in serum-free sterile hybridoma supernatants were immobilized on an anti-IgG coated plate at 500-fold dilution, followed by the incubation of oligoTau or monoTau, both with site-specific biotinylation via an AVI-tag. The target incubations started at 5 μg/mL and then were diluted 8- or 16-fold. Streptavidin-HRP and ABTS substrate was used for signal quantitation in a plate reader (Tecan, Switzerland). Results are expressed as O.D.

[10] = biological target: T1, full-length human Tau (flTau); experiment: indirect ELISA, flTau coated, hybridoma supernatant diluted, O.D.
Protocol: Coating was done overnight in phosphate-buffered saline (PBS) at 4° C. Plates were washed thoroughly with 0.05% Tween-20/PBS and then blocked with 1% bovine serum albumin (BSA) in 0.05% Tween-20/PBS for 1 hr at 37° C. The antibody contained in the hybridoma supernatant was then added at the indicated dilutions, and incubated for 2 hrs at 37° C. after which the plates were washed as described previously.
For the indirect ELISAs, an AP-conjugated anti-mouse IgG secondary antibody (Jackson ImmunoResearch Laboratories, United Kingdom) was added at 1/6000 dilution in 0.05% Tween-20/PBS for 2 hr at 37° C. After the final wash, plates were incubated with p-nitrophenyl phosphate disodium hexahydrate (pNPP; Sigma-Aldrich, Switzerland) phosphatase substrate solution, and read at 405 nm using an ELISA plate reader (Tecan, Switzerland). Results are expressed as optical densities (O.D.).

[11] = biological target: T10, AVI-tag biotinylated monomeric flTau (human, UniProt P10636-8 1-441, site-specific biotin on AVI-tag); experiment: capture ELISA, antibody on anti-IgG plate, biotinylated monoTau titrated, O.D.
T10 construct: also called monoTau; monomeric Tau
Protocol: as §1

[12] = biological target: T3, recombinant human Tau monomer, 2N4R …; experiment: SPR, human Fab capture kit, Tau monomer analyte
Protocol: Affinity was assessed at 25° C. using a Biacore T200 instrument, the GE Biacore human FAb capture kit and a CM5 Series S chip. The hIgG were diluted to 0.5 μg/ml in 10 mM HEPES pH7.4, 150 mM NaCl, 0.05% Tween 20 (running buffer, HBSP) and captured at a flow rate of 10 μl/min for 180 seconds. Kinetic data was collected for Human Tau monomer injected at concentrations of 0, 0.4, 1.2, 3.7, 11, 11, 33 and 100 nM in HBSP, using a flow rate of 30 μl/min, a 300 second association phase and a 600 second dissociation phase. Between cycles the surface was regenerated using two sequential 60 second injections of 10 mM Glycine pH 2.1. Data was fit to a 1:1 binding model.

T3 sequence (P10636 other isoform, or with tags, fused parts or gaps limits assumed): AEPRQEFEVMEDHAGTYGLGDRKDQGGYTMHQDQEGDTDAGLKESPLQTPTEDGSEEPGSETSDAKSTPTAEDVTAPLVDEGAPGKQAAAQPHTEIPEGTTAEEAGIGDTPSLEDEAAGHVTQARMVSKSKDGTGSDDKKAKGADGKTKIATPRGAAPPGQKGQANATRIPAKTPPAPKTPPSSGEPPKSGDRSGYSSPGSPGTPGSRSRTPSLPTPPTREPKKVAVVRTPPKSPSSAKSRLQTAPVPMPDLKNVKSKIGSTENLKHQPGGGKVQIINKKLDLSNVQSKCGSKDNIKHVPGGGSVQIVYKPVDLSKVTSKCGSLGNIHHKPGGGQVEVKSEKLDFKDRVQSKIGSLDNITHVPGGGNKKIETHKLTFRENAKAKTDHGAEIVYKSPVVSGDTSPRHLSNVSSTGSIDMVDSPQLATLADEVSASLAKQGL
T1 sequence (P10636 other isoform, or with tags, fused parts or gaps limits assumed): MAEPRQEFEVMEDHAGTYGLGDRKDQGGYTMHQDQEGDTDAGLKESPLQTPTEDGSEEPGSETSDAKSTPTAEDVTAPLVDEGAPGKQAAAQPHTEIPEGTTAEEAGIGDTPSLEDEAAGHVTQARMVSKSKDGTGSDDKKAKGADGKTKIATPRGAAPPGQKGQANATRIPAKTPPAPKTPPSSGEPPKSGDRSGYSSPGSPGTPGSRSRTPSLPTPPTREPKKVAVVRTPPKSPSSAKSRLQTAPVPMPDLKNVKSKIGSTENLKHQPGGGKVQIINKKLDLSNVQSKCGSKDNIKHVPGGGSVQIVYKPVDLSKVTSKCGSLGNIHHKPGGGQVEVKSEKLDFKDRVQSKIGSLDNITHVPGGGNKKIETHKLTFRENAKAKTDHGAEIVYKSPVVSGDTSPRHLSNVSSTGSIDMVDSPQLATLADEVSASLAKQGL
T2 sequence (P10636 other isoform, or with tags, fused parts or gaps limits assumed): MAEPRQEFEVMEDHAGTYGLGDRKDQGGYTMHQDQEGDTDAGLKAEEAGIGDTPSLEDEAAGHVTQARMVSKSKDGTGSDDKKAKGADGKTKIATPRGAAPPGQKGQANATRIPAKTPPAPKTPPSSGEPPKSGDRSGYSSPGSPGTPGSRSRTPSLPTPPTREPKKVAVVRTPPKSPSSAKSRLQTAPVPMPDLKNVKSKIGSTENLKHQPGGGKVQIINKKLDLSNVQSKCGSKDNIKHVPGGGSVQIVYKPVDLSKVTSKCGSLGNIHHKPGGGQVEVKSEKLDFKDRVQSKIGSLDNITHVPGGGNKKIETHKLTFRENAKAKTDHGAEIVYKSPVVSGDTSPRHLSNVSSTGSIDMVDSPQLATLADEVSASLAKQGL

- Kd [1]: 0.5 nM
- binding result [2]: no binding (tested: not given)
B2: 77D1-D2 (antibody, V domains shown)
VH: EVQLQQSVAELVRPGASVTLSCTSSGFNIKNTYMHWVIQRPEQGLEWIGKIDPAIVNTKYAPKFQGKATITADTSSNTAYLQLSSLTSEDTGIYYCAEGALLYWGLGTSVTVSS
VL: DVVMTQTPLSLSVTIGQPASISCKSSQSLLHSNGKTYLNWLQQRPGQAPKLLMYLVSKVDPGIPDRFSGSGSETDFTLKISRVEAEDLGVYYCFQGTYYPHTFGGGTKLEIK
notes: hybridoma supernatant

- binding result [10]: binds
- binding result [11]: binds
- binding result [9]: binds
B6: 14F5-D9 (antibody, V domains shown)
VH: EVKLVESGGGLVQPGGSLRLSCATSGFTFSDFYMEWVRQSPGKRLEWIAASKNKANDYTTEYNASVKDRFFVSRDTSQSILYLQMNALRAEDTAIYYCARDALGTVFAYWGQGTLVTVSA
VL: DVVMTQTPLSLPVSLGDQASISCRSSQSLVHSNGNTYLHWYLQKPGQSPKLLIYKVFNRFSGVPDRFSGSGSGTDFTLKISRVEAEDLGVYFCSQSTLVPLTFGAGTKLELK
notes: hybridoma supernatant

- binding result [11]: binds
- binding result [9]: binds
B7: 73H6-B8 (antibody, V domains shown)
VH: QVQLKESGPGLVAPSQSLSITCTISGFSLTSYGVHWVRQPPGKGLEWLVVIWSDGSTTYNSALKSRLSISKDNSKSQVFLKMNSLQTDDTAMYYCARQGGFITTAYYAMDYWGQGTSVTVSS
VL: DIVMSQSPSSLAVSAGEKVTMSCKSSQSLLNSRTRKNYLAWYQQKPGQSPKLLIYWASTRESGVPDRFTGSGSGTDFTLTISSVQAEDLAVYYCKQSYNLYTFGGGTKLEIK
notes: hybridoma supernatant

- Kd [1]: 2 nM
- binding result [2]: no binding (tested: not given)
B9: 72E12-H9 (antibody, V domains shown)
VH: EVKLEESGGGLVQPGGSMKLSCVASGFTFSNYWMNWVRQSPEKGLEWVAQIRLKSDNYATHYAESVKGRFTISRDDSKSSVYLQMNNLRAEDTGIYYCAGYFYGGYFDVWGTGTTVTVSS
VL: ELVLTQSPTTMAASPGKKITITCSASSSISSNYLHWYQQKPGFSPKLLIYRTSNLASGVPARFSGSGSGTSYSLTIGTMEAEDVATYYCQQGSSLPFTFGSGTKLEIK
notes: hybridoma supernatant

- Kd [1]: 4.7 nM
- binding result [2]: no binding (tested: not given)
B10: 211G6-B6 (antibody, V domains shown)
VH: QVQLKESGPGLVAPSQSLSITCTVSGFSLTSYAISWVRQPPGKGLEWLGVIWTGGGTNYNSALKSRLSITKDNSKNQVFFRMNSLQTDDTARYYCARKKLYDYDGGYFFDYWGQGTTLTVSS
VL: DIVMSQSPSSLAMSVGEKVTMSCKSNQSLLYSSNQKNYLAWYQQKPGQSPKLLIYWASTRESGVPDRFTGSGSGTDFTLTISSVKAEDLAVYYCHQYYSYPWTFGGGTKLEIK

- Kd [12]: 1.4 nM
- koff [12]: 0.0009 s⁻¹
- kon [12]: 600000 M⁻¹ s⁻¹
B11: hu37D3-H9.v28.A4 hIgG4.S228P.YTE (antibody, V domains shown)
VH: EVQLVESGGGLVQPGGSLRLSCAASGLIFRSYGMSWVRQAPGKGLEWVATINSGGTYTYYPDSVKGRFTISRDNSKNTLYLQMNSLRAEDTAVYYCANSYSGAMDYWGQGTLVTVSS
VL: DDVLTQTPLSLPVTPGQPASISCRSSQSIVHSNGNTYLEWYLQKPGQSPQLLIYKVSNRFSGVPDRFSGSGSGTDFTLKISRVEAEDVGVYYCFQGSLVPWTFGQGTKVEIKR
notes: also called hu37D3.v28.A4 hIgG4-S228P.YTE

The remaining lines, values behind:

B1: 30D12-B5 (antibody, V domains shown)
VH: EVQLQQSGAELVKPGASVKLSCTTSGFNIKDTYMHWVKQRPEQGLEWIGGIDPANGNTKYDPKFQGKATITADTSSNTAYLQLSSLTSEDTAVYYCAHGNFVYWGQGTLVTVSA
VL: DVVMTQTPLSLSVTIGQPASISCKSSQSLLYSNGKTYLNWFQQRPGQAPKHLMYQVSKLDPGIPDRFSGSGSETDFTLKISRVEAEDLGVYYCLQGTYYPLTFGAGTNLELK
notes: hybridoma supernatant
- Kd [1]: 2 nM
- binding result [2]: no binding (tested: not given)

B3: 19H6-F7 (antibody, mouse IgG2a, V domains shown)
VH: EVQLVESGGDLVKPGGSLKLSCAASGFTFSSYGMSWVRQTPDKRLEWVATISSGGTYTYYPDSVKGRFTISRDNAKNTLYLQMSSLKSEDTAMYYCAPSYDGAMDYWGQGTSVTVSS
VL: DVLMTQTPLSLPVSLGDQASISCRSSQSIVHSNGNTYLEWYLQKPGQSPKLLIYKVSNRFSGVPDRFSGSGSGTDFTLKISRVEAEDLGVYYCFQGSLVPWTFGGGTKLEIK
- Kd [1]: 39 nM
- Kd [3]: 10 nM
- koff [3]: 0.002 s⁻¹
- kon [3]: 200000 M⁻¹ s⁻¹
- binding result [4]: binds
- binding result [5]: no binding (tested: not given)
- binding result [6]: no binding (tested: not given)
- binding result [7]: no binding (tested: not given)
- binding result [8]: no binding (tested: not given)
- EC50 (read off the curve) [9]: ~0.2 µg/mL

B4: 12A10-E8 (antibody, V domains shown)
VH: QIQLVQSGPELKKPGETVKISCKASGYTFTNYGMNWVKQAPGKGLKWMGWINMYTGEPTYGDDFKGRFVFSLETSVSTVYLQINNLKKEDTATFFCARGGRPDYWGQGTSVTVSS
VL: DVLMTQTPLSLPVSLGDQASISCRSSQSIVHSNGNTYLEWYLQKPGQSPKLLIYKVFNRFSGVPDRFSGSGSGTDFTLKINRVEAEDLGVYYCLQGSHVPYTFGGGTKLEIK
notes: hybridoma supernatant
- Kd [1]: 0.8 nM
- binding result [2]: no binding (tested: not given)

B5: 3A4-H4 (antibody, mouse IgG2a, V domains shown)
VH: EVQLVESGGDLVKPGGSLKLSCAASGFTFSSYGMSWVRQTPDKRLEWVATISSGGTYTYYPDSVKGRFTISRDNAKNTLYLQMSSLKSEDTAMYFCATSYDGAMDYWGQGTSVTVSS
VL: DVLMTQTPLSLPVSLGDQASISCRSSQNIVHSNGNTYLEWYLQKPGQSPKLLIYKVSNRFSGVPDRFSGSGSGTDFTLKISRVEAEDLGVYYCFQGTLVPWTFGGGTKLEIK
- Kd [1]: 7.8 nM
- Kd [3]: 12 nM
- koff [3]: 0.0003 s⁻¹
- kon [3]: 30000 M⁻¹ s⁻¹
- binding result [5]: no binding (tested: not given)
- binding result [6]: no binding (tested: not given)
- binding result [7]: no binding (tested: not given)
- binding result [8]: no binding (tested: not given)
- EC50 (read off the curve) [9]: ~0.09 µg/mL

B8: 55E7-F11 (antibody, mouse IgG2a, V domains shown)
VH: EVKLEESGGGLVQPGGSMKLSCVASGFTFSNYWMNWVRQSPEKGLEWVAQIRLKSDNYATHYAESVKGRFTISRDDSKSSVYLQMNNLRAEDTGIYYCAGYFYGGYFDVWGTGTTVTVSS
VL: ELVLTQSPTTMAASPGKKITITCSASSSISSNYLHWYQQKPGFSPKLLIYRTSNLASGVPARFSGSGSGTSYSLTIGTMEAEDVATYYCQQGSSLPFTFGSGTKLEIK
- Kd [3]: 171 nM
- koff [3]: 0.04 s⁻¹
- kon [3]: 200000 M⁻¹ s⁻¹
- binding result [2]: no binding (tested: not given)
